From patent US20240052055A1

Columns and labels:
[1] = target: monkey GPC3 on HEK293T cells (monkey); assay: FACS on HEK293T-monkey GPC3 cells
[2] = target: human GPC3 (Gln25-His559)-His protein (Acro, Cat. No. GP3-H52H4) (human) (UniProt P51654); assay: ELISA; antibody 0.001 nM
[3] = target: mouse GPC3-His protein (Sino Biological, Cat. No. 50989-M08B) (mouse) (UniProt Q8CFZ4); assay: ELISA; antibody 100 nM
[4] = target: monkey GPC3-His protein (Acro, Cat. No. GP3-05225) (monkey) (UniProt A5A6P7); assay: ELISA; antibody 100 nM
Chain of UniProt A5A6P7 (A5A6P7 other isoform, or with tags, fused parts or gaps limits assumed): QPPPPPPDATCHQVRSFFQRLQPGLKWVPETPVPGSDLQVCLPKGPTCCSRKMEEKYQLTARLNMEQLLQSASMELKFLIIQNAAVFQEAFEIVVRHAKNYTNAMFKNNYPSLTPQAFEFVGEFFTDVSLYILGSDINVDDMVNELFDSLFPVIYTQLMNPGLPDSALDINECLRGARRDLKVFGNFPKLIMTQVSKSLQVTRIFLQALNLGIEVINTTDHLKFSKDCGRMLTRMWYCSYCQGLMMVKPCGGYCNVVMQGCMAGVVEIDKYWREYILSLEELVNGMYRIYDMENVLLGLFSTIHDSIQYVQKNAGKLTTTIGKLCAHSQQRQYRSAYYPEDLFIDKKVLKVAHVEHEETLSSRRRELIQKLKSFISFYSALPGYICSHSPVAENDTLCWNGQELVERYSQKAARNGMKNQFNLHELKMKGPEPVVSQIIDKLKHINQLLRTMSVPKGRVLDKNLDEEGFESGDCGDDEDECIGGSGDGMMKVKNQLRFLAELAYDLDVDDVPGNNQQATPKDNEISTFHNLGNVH

[5] = target: human GPC3 (Gln25-His559)-His protein (Acro, Cat. No. GP3-H52H4) (human) (UniProt P51654); assay: ELISA; antibody 100 nM
[6] = target: human GPC3 on cells (HepG2 endogenous; CHO-K1 recombinant clones CHOK1-hGPC3.1C3, 2B5, 3E9) (human) (UniProt P51654); assay: FACS on HepG2 cells
[7] = target: mouse GPC3-His protein (Sino Biological, Cat. No. 50989-M08B) (mouse) (UniProt Q8CFZ4); assay: ELISA; antibody 0.01 nM
[8] = target: human GPC3 (Gln25-His559)-His protein (Acro, Cat. No. GP3-H52H4) (human) (UniProt P51654); assay: ELISA; antibody 0.01 nM
[9] = target: human GPC3 on cells (HepG2 endogenous; CHO-K1 recombinant clones CHOK1-hGPC3.1C3, 2B5, 3E9) (human) (UniProt P51654); assay: FACS on CHOK1-hGPC3.3E9 cells
[10] = target: human GPC3 on cells (HepG2 endogenous; CHO-K1 recombinant clones CHOK1-hGPC3.1C3, 2B5, 3E9) (human) (UniProt P51654); assay: FACS on HepG2 cells; remark: listed apart in the source
[11] = target: human GPC3 (Gln25-His559)-His protein (Acro, Cat. No. GP3-H52H4) (human) (UniProt P51654); assay: ELISA; antibody 0.1 nM
[12] = target: human GPC3 (Gln25-His559)-His protein (Acro, Cat. No. GP3-H52H4) (human) (UniProt P51654); assay: ELISA; antibody 0.01 nM; remark: listed apart in the source
[13] = target: human GPC3 on cells (HepG2 endogenous; CHO-K1 recombinant clones CHOK1-hGPC3.1C3, 2B5, 3E9) (human) (UniProt P51654); assay: FACS on CHOK1-hGPC3.2B5 cells
[14] = target: mouse GPC3-His protein (Sino Biological, Cat. No. 50989-M08B) (mouse) (UniProt Q8CFZ4); assay: ELISA; antibody 1 nM
[15] = target: monkey GPC3-His protein (Acro, Cat. No. GP3-05225) (monkey) (UniProt A5A6P7); assay: ELISA; antibody 1 nM
[16] = target: human GPC3 (Gln25-His559)-His protein (Acro, Cat. No. GP3-H52H4) (human) (UniProt P51654); assay: ELISA; antibody 1 nM
[17] = target: monkey GPC3-His protein (Acro, Cat. No. GP3-05225) (monkey) (UniProt A5A6P7); assay: ELISA; antibody 0.1 nM
[18] = target: human GPC3 (Gln25-His559)-His protein (Acro, Cat. No. GP3-H52H4) (human) (UniProt P51654); assay: ELISA; antibody 0.1 nM; remark: listed apart in the source
[19] = target: human GPC3 (Gln25-His559)-His protein (Acro, Cat. No. GP3-H52H4) (human) (UniProt P51654); assay: ELISA; antibody 0.0001 nM
[20] = target: mouse GPC3-His protein (Sino Biological, Cat. No. 50989-M08B) (mouse) (UniProt Q8CFZ4); assay: ELISA; antibody 10 nM
[21] = target: monkey GPC3-His protein (Acro, Cat. No. GP3-05225) (monkey) (UniProt A5A6P7); assay: ELISA; antibody 10 nM
[22] = target: human GPC3 (Gln25-His559)-His protein (Acro, Cat. No. GP3-H52H4) (human) (UniProt P51654); assay: ELISA; antibody 10 nM
[23] = target: mouse GPC3-His protein (Sino Biological, Cat. No. 50989-M08B) (mouse) (UniProt Q8CFZ4); assay: ELISA; antibody 0.0001 nM
[24] = target: monkey GPC3-His protein (Acro, Cat. No. GP3-05225) (monkey) (UniProt A5A6P7); assay: ELISA; antibody 0.0001 nM
[25] = target: human GPC3 (Gln25-His559)-His protein (Acro, Cat. No. GP3-H52H4) (human) (UniProt P51654); assay: ELISA; antibody 0.0001 nM; remark: listed apart in the source
[26] = target: human GPC3 on cells (HepG2 endogenous; CHO-K1 recombinant clones CHOK1-hGPC3.1C3, 2B5, 3E9) (human) (UniProt P51654); assay: FACS on CHO-K1-human GPC3 cells
[27] = target: human GPC3 (Gln25-His559)-His protein (Acro, Cat. No. GP3-H52H4) (human) (UniProt P51654); assay: ELISA; antibody 1 nM; remark: listed apart in the source
[28] = target: human GPC3 on cells (HepG2 endogenous; CHO-K1 recombinant clones CHOK1-hGPC3.1C3, 2B5, 3E9) (human) (UniProt P51654); assay: FACS on CHOK1-hGPC3.1C3 cells
[29] = target: human GPC3 (Gln25-His559)-His protein (Acro, Cat. No. GP3-H52H4) (human) (UniProt P51654); assay: ELISA; antibody 100 nM; remark: listed apart in the source
[30] = target: mouse GPC3-His protein (Sino Biological, Cat. No. 50989-M08B) (mouse) (UniProt Q8CFZ4); assay: ELISA; antibody 0.001 nM
[31] = target: monkey GPC3-His protein (Acro, Cat. No. GP3-05225) (monkey) (UniProt A5A6P7); assay: ELISA; antibody 0.001 nM
[32] = target: human GPC3 (Gln25-His559)-His protein (Acro, Cat. No. GP3-H52H4) (human) (UniProt P51654); assay: ELISA; antibody 0.001 nM; remark: listed apart in the source
[33] = target: human GPC3 (Gln25-His559)-His protein (Acro, Cat. No. GP3-H52H4) (human) (UniProt P51654); assay: ELISA; antibody 10 nM; remark: listed apart in the source

Chain of UniProt Q8CFZ4 (Q8CFZ4 25-558 limits assumed): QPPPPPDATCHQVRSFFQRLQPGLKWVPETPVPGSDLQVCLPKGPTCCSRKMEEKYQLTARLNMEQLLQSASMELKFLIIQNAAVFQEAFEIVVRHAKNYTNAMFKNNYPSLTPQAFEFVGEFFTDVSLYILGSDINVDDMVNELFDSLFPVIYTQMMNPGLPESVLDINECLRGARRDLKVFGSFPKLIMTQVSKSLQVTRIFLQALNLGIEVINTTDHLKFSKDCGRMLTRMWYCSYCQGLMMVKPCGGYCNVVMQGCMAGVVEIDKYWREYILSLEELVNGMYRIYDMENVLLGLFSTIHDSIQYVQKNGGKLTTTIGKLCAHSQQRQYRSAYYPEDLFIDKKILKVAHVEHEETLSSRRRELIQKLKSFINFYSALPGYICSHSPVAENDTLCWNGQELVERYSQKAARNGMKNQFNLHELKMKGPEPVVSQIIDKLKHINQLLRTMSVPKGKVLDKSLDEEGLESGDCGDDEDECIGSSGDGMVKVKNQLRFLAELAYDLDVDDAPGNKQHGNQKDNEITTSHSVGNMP
Chain of monkey GPC3 on HEK293T cells (monkey) (chain, as listed by the source limits assumed): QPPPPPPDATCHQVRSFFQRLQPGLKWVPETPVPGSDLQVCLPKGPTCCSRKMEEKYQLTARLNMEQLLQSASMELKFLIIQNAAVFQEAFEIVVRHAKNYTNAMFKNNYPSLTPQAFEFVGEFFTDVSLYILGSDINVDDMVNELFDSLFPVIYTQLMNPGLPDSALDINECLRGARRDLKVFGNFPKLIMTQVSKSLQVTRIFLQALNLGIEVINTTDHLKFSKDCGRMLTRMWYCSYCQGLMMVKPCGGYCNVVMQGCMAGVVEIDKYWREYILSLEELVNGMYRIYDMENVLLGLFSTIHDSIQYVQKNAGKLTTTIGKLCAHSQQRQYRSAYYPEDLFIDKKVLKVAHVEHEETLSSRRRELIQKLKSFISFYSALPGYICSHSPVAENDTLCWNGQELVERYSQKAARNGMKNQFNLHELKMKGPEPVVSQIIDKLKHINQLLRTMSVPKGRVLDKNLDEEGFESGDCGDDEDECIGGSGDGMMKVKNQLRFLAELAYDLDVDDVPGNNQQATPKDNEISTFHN

Question: How did the Max MFI [1] turn out when “human IgG1 (IgG subtype control) (antibody)” was run?
Answer: Its Max MFI is 107.

Question: What about the OD450 [2] of the same substance?
Answer: Its OD450 is 0.048.

Question: And the OD450 [3]?
Answer: The OD450 was 0.105.

Question: What about the OD450 [4] of the same substance?
Answer: Its OD450 is 0.056.

Question: What about the OD450 [5] of the same substance?
Answer: The OD450 was 0.072.

Question: And the Max MFI [6]?
Answer: Its Max MFI is 155.

Question: And the OD450 [7]?
Answer: Its OD450 is 0.052.

Question: And the OD450 [8]?
Answer: Its OD450 is 0.06.

Question: What about the Mean fluorescence density of cells [9] of the same substance?
Answer: The Mean fluorescence density of cells was 19.3.

Question: What about the Max MFI [10] of the same substance?
Answer: Its Max MFI is 124.

Question: And the OD450 [11]?
Answer: The OD450 was 0.05.

Question: What about the OD450 [12] of the same substance?
Answer: The OD450 was 0.048.

Question: And the Mean fluorescence density of cells [13]?
Answer: The Mean fluorescence density of cells was 19.3.

Question: What about the OD450 [14] of the same substance?
Answer: The OD450 was 0.05.

Question: And the OD450 [15]?
Answer: The OD450 was 0.044.

Question: And the OD450 [16]?
Answer: Its OD450 is 0.048.

Question: And the OD450 [17]?
Answer: The OD450 was 0.045.

Question: What about the OD450 [18] of the same substance?
Answer: Its OD450 is 0.06.

Question: What about the OD450 [19] of the same substance?
Answer: Its OD450 is 0.047.

Question: And the OD450 [20]?
Answer: The OD450 was 0.055.

Question: What about the OD450 [21] of the same substance?
Answer: Its OD450 is 0.047.

Question: And the OD450 [22]?
Answer: The OD450 was 0.05.

Question: And the OD450 [23]?
Answer: The OD450 was 0.049.

Question: And the OD450 [24]?
Answer: The OD450 was 0.048.

Question: And the OD450 [25]?
Answer: The OD450 was 0.06.

Question: And the Max MFI [26]?
Answer: The Max MFI was 88.

Question: And the OD450 [27]?
Answer: Its OD450 is 0.06.

Question: And the Mean fluorescence density of cells [28]?
Answer: The Mean fluorescence density of cells was 19.3.

Question: What about the OD450 [29] of the same substance?
Answer: Its OD450 is 0.44.

Question: And the OD450 [30]?
Answer: Its OD450 is 0.051.

Question: What about the OD450 [31] of the same substance?
Answer: Its OD450 is 0.044.

Question: What about the OD450 [32] of the same substance?
Answer: Its OD450 is 0.06.

Question: What about the OD450 [33] of the same substance?
Answer: The OD450 was 0.1.
